Data as given in patent publication US20240189443A1, “PD-L1 AND TLR7 DOUBLE-TARGETING NANOBODY COUPLING DRUG AND USE THEREOF IN ANTI-TUMOR” (SHANGHAI INSTITUTE OF MATERIA MEDICA, CHINESE ACADEMY OF …, priority 2021, published 2024).

Assays:
HEK293T/mPD-L1 = target: T1, HEK293T/mPD-L1 (Mus musculus, UniProt Q9EP73); assay: Flow cytometry PD-L1 binding activity assay of the nanobody coupling drug; details: 17 concentrations 100-0.0008 μg/mL
T1 construct: expressed in transfected cells; host or cells: HEK293T

[1] = test system: uninduced CT26 tumor cell; assay: Late CT26 subcutaneous tumor-bearing model (tumor volume>200 mm^3); assay type: in vivo, BALB/c mouse
Experimental: (§1) The uninduced CT26 tumor cell subcutaneous was inoculated into a female BALB/C mouse to construct a tumor-bearing mouse model in the two models, and the inoculation amount was 1×10^6 cells/; the mice were divided into two groups, and each group was 8 mice, that is, a blank control group mFc (the concentration was 10 mg/kg), and a coupling compound Nb16-SZU-101 group (the concentration was 10 mg/kg); and the administration dosage was 200 μL, and the administration manner was an abdominal administration. In the early model (the tumor volume was<50 mm^3), the drug was administered in Day 4, Day 7, Day 10, Day 13, Day 16, and the drug was administered for 5 times; in the late model (the tumor volume was greater than 200 mm^3), the drug was administered in Day 9, Day 12, Day 15, Day 17, and the drug was administered for 4 times. The tumor size was measured 2-3 times a week, and a tumor growth curve was drawn.

induced CT26 = assay: Induced (high expression) PD-L1 CT26 subcutaneous tumor-bearing model; assay type: in vivo, BALB/c mouse; details: 10 mg/kg intraperitoneal, 4 doses
Source text: In FIG. 8A, it has been shown that the non-induced CT26 cell surface PD-L1 expression is approximately 17.3%, and the expression level of PD-L1 is increased to 98.1% only after IFN-γ induction. Therefore, we researched and compared the effects of the coupling compound in the non-induced and induced CT26 mouse tumor model, respectively.
In the two models, CT26 tumor cells were subcutaneously inoculated into female BALB/c mice before and after induction respectively to construct tumor-bearing mouse models, and the inoculation amount was 1×10^6 cells/one; the mice are randomly divided into two groupswith 6 mice of each group, that is, a blank control group mFc (the concentration is 10 mg/kg), and a coupling compound Nb16-SZU-101 group (the concentration was 10 mg/kg); the administration dosage was 200 μl, and the administration modes were both intraperitoneal administration; administration was performed on Day 2, Day 5, Day 8 and Day 11 respectively, and administration was carried out for 4 times; the size of the tumor was measured for 2-3 times every week, and a tumor growth curve was drawn; and anatomical weighing and photographing were performed on the mouse at Day 12.

[2] = test system: uninduced CT26 tumor cell; assay: Early CT26 subcutaneous tumor-bearing model (tumor volume<50 mm^3); assay type: in vivo, BALB/c mouse
Experimental: as §1

[3] = test system: CD4+T cells, CD8+T cells, NK cells, macrophages; assay: Immune cell deletion analysis of conjugate efficacy; assay type: in vivo, Balb/c mice
Source text: Balb/c mice were randomized into 6 groups of 6 mouse each. Corresponding groups are: MFC group, Nb16-SZU-101 group, Nb16-SZU-101+anti-CD4 group, Nb16-SZU-101+anti-CD8 group, Nb16-SZU-101+anti-NK1.1 group, Nb16-SZU-101+chlorophosphate liposome group. The administration of the mFc and Nb16-SZU-101 was consistent with example 8.1.
The immune cell deletion method comprised: deleting corresponding immune cells (CD4+T cells, CD8+T cells, NK cells) by intraperitoneal injection of antibody drugs (anti-CD4, anti-CD8, anti-NK1.1) respectively in Day 3 (200 ug/one)/Day 4 (100 ug/one)/Day 5 (100 ug/one), or intraperitoneal injection of chlorophosphate-liposomes to remove macrophages.
On Day 14 the mice would be euthanized.

T1 sequence (Q9EP73 19-290): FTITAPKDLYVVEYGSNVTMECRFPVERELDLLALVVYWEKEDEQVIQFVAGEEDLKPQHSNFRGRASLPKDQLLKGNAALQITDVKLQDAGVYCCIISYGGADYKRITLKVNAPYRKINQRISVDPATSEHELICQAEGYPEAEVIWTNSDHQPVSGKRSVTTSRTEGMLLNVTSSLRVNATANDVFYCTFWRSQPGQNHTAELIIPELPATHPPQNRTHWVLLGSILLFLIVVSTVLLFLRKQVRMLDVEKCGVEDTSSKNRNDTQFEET

B1: Nb16-SZU-101: PD-L1 and TLR7 dual-targeting nanobody coupling drug, Nb16 coupled with SZU-101-NHS active ester (conjugate)
chain: QVQLQESGGGSVQAGGSLRLSCAASGYTDRNYWMGWFRQAPGKEREGVAALYTRTGSTYYADSVKGRFTISHDNAKNTLYLQMNSLKPEDTAVYYCAADSNAYGLAPLHHYWGQGTQVTVSS
modifications: left off: a dimerising Fc or GST
B1 was tested, and the “PD-L1 binding activity of conjugate compared with Nb16” value (HEK293T/mPD-L1) was “does not change the binding activity”, the “Lifetime (survival)” value [1] was “significantly prolong the lifetime” and the “Tumor growth inhibition rate” value ([1]; 10 mg/kg abdominal administration, 4 doses) was 78.9%. For the same molecule, the “Tumor-bearing mice with tumor regression” value ([1]; 10 mg/kg, 4 doses) was 12.5%, the “Tumor growth inhibition rate” value (induced CT26) was 83.6% and the “Lifetime (survival)” value [2] was “significantly prolong the lifetime”. The “Tumor growth inhibition rate” value ([2]; 10 mg/kg abdominal administration, 5 doses) was 80.3%, the “Tumor-bearing mice with tumor regression” value ([2]; 10 mg/kg, 5 doses) was “up to 62.5%” and the “Effect of deletion of CD4+T cells and macrophages on efficacy” value ([3]; anti-CD4 or chlorophosphate liposomes intraperitoneal) was “little influence on the efficacy”. For the same molecule, the “Effect of deletion of CD8+T cells and NK cells on efficacy” value ([3]; anti-CD8 or anti-NK1.1 intraperitoneal) was “greatly affects the efficacy”.
